Data from US20210388087A1 (Chugai, published 2021).

T1: Human CD3eg linker (human)
T1 construct: Single-chain construct; also called recombinant human CD3
T1 chain: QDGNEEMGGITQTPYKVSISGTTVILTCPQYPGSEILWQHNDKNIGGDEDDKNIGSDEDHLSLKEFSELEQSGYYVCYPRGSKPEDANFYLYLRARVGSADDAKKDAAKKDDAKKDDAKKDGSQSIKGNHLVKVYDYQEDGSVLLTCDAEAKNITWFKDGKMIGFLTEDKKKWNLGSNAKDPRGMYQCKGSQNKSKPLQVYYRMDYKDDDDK


Target: T1, Human CD3eg linker
Test: SPR; fold vs parent H183/L072

Binder	fold change of affinity
H183/L072 VL A89M (antibody, name in Kabat numbering, V domains shown) VH: QVQLVESGGGLVQPGRSLRLSCAASGFTFSNAWMHWVRQAPGKGLEWVAQIKDKGNAYAAYYAPSVKGRFTISRDDSKNSIYLQMNSLKTEDTAVYYCHYVHYASASTVLPAFGVDAWGQGTTVTVSS VL: DIVMTQSPLSLPVTPGEPASISCQASQELVHMNRNTYLHWYQQKPGQAPRLLIYKVSNRFPGVPDRFSGSGSGTDFTLKISRVEAEDVGVYYCMQGTSVPFTFGQGTKLEIK	0.1 fold
H183/L072 VL E27aA (antibody, name in Kabat numbering, V domains shown) VH: QVQLVESGGGLVQPGRSLRLSCAASGFTFSNAWMHWVRQAPGKGLEWVAQIKDKGNAYAAYYAPSVKGRFTISRDDSKNSIYLQMNSLKTEDTAVYYCHYVHYASASTVLPAFGVDAWGQGTTVTVSS VL: DIVMTQSPLSLPVTPGEPASISCQASQALVHMNRNTYLHWYQQKPGQAPRLLIYKVSNRFPGVPDRFSGSGSGTDFTLKISRVEAEDVGVYYCAQGTSVPFTFGQGTKLEIK	1.2 fold
H183/L072 VL E27aP (antibody, name in Kabat numbering, V domains shown) VH: QVQLVESGGGLVQPGRSLRLSCAASGFTFSNAWMHWVRQAPGKGLEWVAQIKDKGNAYAAYYAPSVKGRFTISRDDSKNSIYLQMNSLKTEDTAVYYCHYVHYASASTVLPAFGVDAWGQGTTVTVSS VL: DIVMTQSPLSLPVTPGEPASISCQASQPLVHMNRNTYLHWYQQKPGQAPRLLIYKVSNRFPGVPDRFSGSGSGTDFTLKISRVEAEDVGVYYCAQGTSVPFTFGQGTKLEIK	1 fold
H183/L072 VL E27aN (antibody, name in Kabat numbering, V domains shown) VH: QVQLVESGGGLVQPGRSLRLSCAASGFTFSNAWMHWVRQAPGKGLEWVAQIKDKGNAYAAYYAPSVKGRFTISRDDSKNSIYLQMNSLKTEDTAVYYCHYVHYASASTVLPAFGVDAWGQGTTVTVSS VL: DIVMTQSPLSLPVTPGEPASISCQASQNLVHMNRNTYLHWYQQKPGQAPRLLIYKVSNRFPGVPDRFSGSGSGTDFTLKISRVEAEDVGVYYCAQGTSVPFTFGQGTKLEIK	1.1 fold
H183/L072 VL E27aH (antibody, name in Kabat numbering, V domains shown) VH: QVQLVESGGGLVQPGRSLRLSCAASGFTFSNAWMHWVRQAPGKGLEWVAQIKDKGNAYAAYYAPSVKGRFTISRDDSKNSIYLQMNSLKTEDTAVYYCHYVHYASASTVLPAFGVDAWGQGTTVTVSS VL: DIVMTQSPLSLPVTPGEPASISCQASQHLVHMNRNTYLHWYQQKPGQAPRLLIYKVSNRFPGVPDRFSGSGSGTDFTLKISRVEAEDVGVYYCAQGTSVPFTFGQGTKLEIK	1.4 fold
H183/L072 VL E27aQ (antibody, name in Kabat numbering, V domains shown) VH: QVQLVESGGGLVQPGRSLRLSCAASGFTFSNAWMHWVRQAPGKGLEWVAQIKDKGNAYAAYYAPSVKGRFTISRDDSKNSIYLQMNSLKTEDTAVYYCHYVHYASASTVLPAFGVDAWGQGTTVTVSS VL: DIVMTQSPLSLPVTPGEPASISCQASQQLVHMNRNTYLHWYQQKPGQAPRLLIYKVSNRFPGVPDRFSGSGSGTDFTLKISRVEAEDVGVYYCAQGTSVPFTFGQGTKLEIK	1.2 fold
H183/L072 VL A89W (antibody, name in Kabat numbering, V domains shown) VH: QVQLVESGGGLVQPGRSLRLSCAASGFTFSNAWMHWVRQAPGKGLEWVAQIKDKGNAYAAYYAPSVKGRFTISRDDSKNSIYLQMNSLKTEDTAVYYCHYVHYASASTVLPAFGVDAWGQGTTVTVSS VL: DIVMTQSPLSLPVTPGEPASISCQASQELVHMNRNTYLHWYQQKPGQAPRLLIYKVSNRFPGVPDRFSGSGSGTDFTLKISRVEAEDVGVYYCWQGTSVPFTFGQGTKLEIK	0.1 fold
H183/L072 VL A89V (antibody, name in Kabat numbering, V domains shown) VH: QVQLVESGGGLVQPGRSLRLSCAASGFTFSNAWMHWVRQAPGKGLEWVAQIKDKGNAYAAYYAPSVKGRFTISRDDSKNSIYLQMNSLKTEDTAVYYCHYVHYASASTVLPAFGVDAWGQGTTVTVSS VL: DIVMTQSPLSLPVTPGEPASISCQASQELVHMNRNTYLHWYQQKPGQAPRLLIYKVSNRFPGVPDRFSGSGSGTDFTLKISRVEAEDVGVYYCVQGTSVPFTFGQGTKLEIK	0.4 fold
H183/L072 VL A89S (antibody, name in Kabat numbering, V domains shown) VH: QVQLVESGGGLVQPGRSLRLSCAASGFTFSNAWMHWVRQAPGKGLEWVAQIKDKGNAYAAYYAPSVKGRFTISRDDSKNSIYLQMNSLKTEDTAVYYCHYVHYASASTVLPAFGVDAWGQGTTVTVSS VL: DIVMTQSPLSLPVTPGEPASISCQASQELVHMNRNTYLHWYQQKPGQAPRLLIYKVSNRFPGVPDRFSGSGSGTDFTLKISRVEAEDVGVYYCSQGTSVPFTFGQGTKLEIK	0.6 fold
H183/L072 VL E27aL (antibody, name in Kabat numbering, V domains shown) VH: QVQLVESGGGLVQPGRSLRLSCAASGFTFSNAWMHWVRQAPGKGLEWVAQIKDKGNAYAAYYAPSVKGRFTISRDDSKNSIYLQMNSLKTEDTAVYYCHYVHYASASTVLPAFGVDAWGQGTTVTVSS VL: DIVMTQSPLSLPVTPGEPASISCQASQLLVHMNRNTYLHWYQQKPGQAPRLLIYKVSNRFPGVPDRFSGSGSGTDFTLKISRVEAEDVGVYYCAQGTSVPFTFGQGTKLEIK	1.2 fold
H183/L072 VL A89Q (antibody, name in Kabat numbering, V domains shown) VH: QVQLVESGGGLVQPGRSLRLSCAASGFTFSNAWMHWVRQAPGKGLEWVAQIKDKGNAYAAYYAPSVKGRFTISRDDSKNSIYLQMNSLKTEDTAVYYCHYVHYASASTVLPAFGVDAWGQGTTVTVSS VL: DIVMTQSPLSLPVTPGEPASISCQASQELVHMNRNTYLHWYQQKPGQAPRLLIYKVSNRFPGVPDRFSGSGSGTDFTLKISRVEAEDVGVYYCQQGTSVPFTFGQGTKLEIK	0.2 fold
H183/L072 VL E27aK (antibody, name in Kabat numbering, V domains shown) VH: QVQLVESGGGLVQPGRSLRLSCAASGFTFSNAWMHWVRQAPGKGLEWVAQIKDKGNAYAAYYAPSVKGRFTISRDDSKNSIYLQMNSLKTEDTAVYYCHYVHYASASTVLPAFGVDAWGQGTTVTVSS VL: DIVMTQSPLSLPVTPGEPASISCQASQKLVHMNRNTYLHWYQQKPGQAPRLLIYKVSNRFPGVPDRFSGSGSGTDFTLKISRVEAEDVGVYYCAQGTSVPFTFGQGTKLEIK	1.1 fold

The next lines start with the values.

fold change of affinity	Binder
1.1 fold	H183/L072 VL E27aI (antibody, name in Kabat numbering, V domains shown) VH: QVQLVESGGGLVQPGRSLRLSCAASGFTFSNAWMHWVRQAPGKGLEWVAQIKDKGNAYAAYYAPSVKGRFTISRDDSKNSIYLQMNSLKTEDTAVYYCHYVHYASASTVLPAFGVDAWGQGTTVTVSS VL: DIVMTQSPLSLPVTPGEPASISCQASQILVHMNRNTYLHWYQQKPGQAPRLLIYKVSNRFPGVPDRFSGSGSGTDFTLKISRVEAEDVGVYYCAQGTSVPFTFGQGTKLEIK
1.2 fold	H183/L072 VL E27aR (antibody, name in Kabat numbering, V domains shown) VH: QVQLVESGGGLVQPGRSLRLSCAASGFTFSNAWMHWVRQAPGKGLEWVAQIKDKGNAYAAYYAPSVKGRFTISRDDSKNSIYLQMNSLKTEDTAVYYCHYVHYASASTVLPAFGVDAWGQGTTVTVSS VL: DIVMTQSPLSLPVTPGEPASISCQASQRLVHMNRNTYLHWYQQKPGQAPRLLIYKVSNRFPGVPDRFSGSGSGTDFTLKISRVEAEDVGVYYCAQGTSVPFTFGQGTKLEIK
1.1 fold	H183/L072 VL E27aF (antibody, name in Kabat numbering, V domains shown) VH: QVQLVESGGGLVQPGRSLRLSCAASGFTFSNAWMHWVRQAPGKGLEWVAQIKDKGNAYAAYYAPSVKGRFTISRDDSKNSIYLQMNSLKTEDTAVYYCHYVHYASASTVLPAFGVDAWGQGTTVTVSS VL: DIVMTQSPLSLPVTPGEPASISCQASQFLVHMNRNTYLHWYQQKPGQAPRLLIYKVSNRFPGVPDRFSGSGSGTDFTLKISRVEAEDVGVYYCAQGTSVPFTFGQGTKLEIK
1.1 fold	H183/L072 VL E27aD (antibody, name in Kabat numbering, V domains shown) VH: QVQLVESGGGLVQPGRSLRLSCAASGFTFSNAWMHWVRQAPGKGLEWVAQIKDKGNAYAAYYAPSVKGRFTISRDDSKNSIYLQMNSLKTEDTAVYYCHYVHYASASTVLPAFGVDAWGQGTTVTVSS VL: DIVMTQSPLSLPVTPGEPASISCQASQDLVHMNRNTYLHWYQQKPGQAPRLLIYKVSNRFPGVPDRFSGSGSGTDFTLKISRVEAEDVGVYYCAQGTSVPFTFGQGTKLEIK
1.2 fold	H183/L072 VL E27aM (antibody, name in Kabat numbering, V domains shown) VH: QVQLVESGGGLVQPGRSLRLSCAASGFTFSNAWMHWVRQAPGKGLEWVAQIKDKGNAYAAYYAPSVKGRFTISRDDSKNSIYLQMNSLKTEDTAVYYCHYVHYASASTVLPAFGVDAWGQGTTVTVSS VL: DIVMTQSPLSLPVTPGEPASISCQASQMLVHMNRNTYLHWYQQKPGQAPRLLIYKVSNRFPGVPDRFSGSGSGTDFTLKISRVEAEDVGVYYCAQGTSVPFTFGQGTKLEIK
1.3 fold	H183/L072 VL E27aS (antibody, name in Kabat numbering, V domains shown) VH: QVQLVESGGGLVQPGRSLRLSCAASGFTFSNAWMHWVRQAPGKGLEWVAQIKDKGNAYAAYYAPSVKGRFTISRDDSKNSIYLQMNSLKTEDTAVYYCHYVHYASASTVLPAFGVDAWGQGTTVTVSS VL: DIVMTQSPLSLPVTPGEPASISCQASQSLVHMNRNTYLHWYQQKPGQAPRLLIYKVSNRFPGVPDRFSGSGSGTDFTLKISRVEAEDVGVYYCAQGTSVPFTFGQGTKLEIK
0 fold	H183/L072 VL A89T (antibody, name in Kabat numbering, V domains shown) VH: QVQLVESGGGLVQPGRSLRLSCAASGFTFSNAWMHWVRQAPGKGLEWVAQIKDKGNAYAAYYAPSVKGRFTISRDDSKNSIYLQMNSLKTEDTAVYYCHYVHYASASTVLPAFGVDAWGQGTTVTVSS VL: DIVMTQSPLSLPVTPGEPASISCQASQELVHMNRNTYLHWYQQKPGQAPRLLIYKVSNRFPGVPDRFSGSGSGTDFTLKISRVEAEDVGVYYCTQGTSVPFTFGQGTKLEIK
1.4 fold	H183/L072 VL E27aG (antibody, name in Kabat numbering, V domains shown) VH: QVQLVESGGGLVQPGRSLRLSCAASGFTFSNAWMHWVRQAPGKGLEWVAQIKDKGNAYAAYYAPSVKGRFTISRDDSKNSIYLQMNSLKTEDTAVYYCHYVHYASASTVLPAFGVDAWGQGTTVTVSS VL: DIVMTQSPLSLPVTPGEPASISCQASQGLVHMNRNTYLHWYQQKPGQAPRLLIYKVSNRFPGVPDRFSGSGSGTDFTLKISRVEAEDVGVYYCAQGTSVPFTFGQGTKLEIK
